Read-outs that look alike come from different tables or passages of the source.
B1: GLP1R-221-065 (antibody, V domains shown)
VH: QVQLVESGGGVVQPGRSLRLSCAASGFTFNNYAMHWVRQAPGKGLEWVAVISYDRSNEYYADSVKGRFTISRDNSKNTLYLQMNSLRAEDTAVYYCAKHMSMQEGAVTGDGQAAKEFIAWLVKGRVRADLVGDAFDVWGQGTLVTVSS
VL: QSVLTQPPSVSAAPGQKVTISCSGTTSNIANNFVSWYQQLPGTAPKLLIYDHNKRPSGIPDRFSGSKSGTSATLGITGLQTGDEADYYCGTWDTSLSAGAFGGGTKLTVL
notes: IgG
B2: GLP1R-221-084 (antibody, V domains shown)
VH: QVQLVESGGGVVQPGRSLRLSCAASGFAFSNYGMHWVRQAPGKGLEWVAVISSDENNKYYADSVKGRFTISRDNSKNTLYLQMNSLRAEDTAVYYCAKHMSMQEGAVTGEMQAAKEFIAWLVKGRVRADLVGDAFDVWGQGTLVTVSS
VL: QSVLTQPPSVSAAPGQKVTISCSGSSSNIADNYVSWYQQLPGTAPKLLIYENNRRPSGIPDRFSGSKSGTSATLGITGLQTGDEADYYCGTWDVSLSVGMFGGGTKLTVL
notes: IgG
B3: GLP1R-222-056 (antibody, V domains shown)
VH: QVQLVESGGGVVQPGRSLRLSCAASGFPFSSYAMHWVRQAPGKGLEWVAVISYDRSNKYYADSVKGRFTISRDNSKNTLYLQMNSLRAEDTAVYYCAKHMSMQEGAVTGYGQAAKEFIAWLVKGFVRADLVGDAFDVWGQGTLVTVSS
VL: QSVLTQPPSVSAAPGQKVTISCSGSSSNIGSNYISWYQQLPGTAPKLLIYDNDKRPAGIPDRFSGSKSGTSATLGITGLQTGDEADYYCGTWDTSLSVGEFGGGTKLTVL
notes: IgG
B4: GLP1R-221-017 (antibody, V domains shown)
VH: QVQLVESGGGVVQPGRSLRLSCAASGFTFSDYGVHWVRQAPGKGLEWVAFISYDESNKYYADSVKGRFTISRDNSKNTLYLQMNSLRAEDTAVYYCAKHMSMQEGAVTGEYQAAKEFIAWLVKGRVRADLVGDAFDVWGQGTLVTVSS
VL: QSVLTQPPSVSAAPGQKVTISCSGSSSNIGNTYVSWYQQLPGTAPKLLIYDDYKRPSGIPDRFSGSKSGTSATLGITGLQTGDEADYYCATWDATLNTGVFGGGTKLTVL
notes: IgG
B5: GLP1R-221-034 (antibody, V domains shown)
VH: QVQLVESGGGVVQPGRSLRLSCAASGFPFSNYGMHWVRQAPGKGLEWVAVISHDRSNKYYADSVKGRFTISRDNSKNTLYLQMNSLRAEDTAVYYCAKHMSMQEGAVTGEGQAVKEFIAWLVKGRVRADLVGDAFDVWGQGTLVTVSS
VL: QSVLTQPPSVSAAPGQKVTISCSGSSSNIGNNPVSWYQQLPGTAPKLLIYENDNRPSGIPDRFSGSKSGTSATLGITGLQTGDEADYYCATWDRGLSTGVFGGGTKLTVL
notes: IgG
B6: GLP1R-221-033 (antibody, V domains shown)
VH: QVQLVESGGGVVQPGRSLRLSCAASGFSFSNYAMHWVRQAPGKGLEWVAVISHDRSNKYYADSVKGRFTISRDNSKNTLYLQMNSLRAEDTAVYYCAKHMSMQEGAVTGEGQAAKDFIAWLVKGRVRADLVGDAFDVWGQGTLVTVSS
VL: QSVLTQPPSVSAAPGQKVTISCSGSSSNIGNEYVSWYQQLPGTAPKLLIYDNNKRVSGIPDRFSGSKSGTSATLGITGLQTGDEADYYCATWDTSLNVGVFGGGTKLTVL
notes: IgG
B7: GLP1R-221-066 (antibody, V domains shown)
VH: QVQLVESGGGVVQPGRSLRLSCAASGFTFNNYAMHWVRQAPGKGLEWVAVISYDRSNEYYADSVKGRFTISRDNSKNTLYLQMNSLRAEDTAVYYCAKHMSMQEGAVTGEGQAIKEFIAWLVKGRVRADLVGDAFDVWGQGTLVTVSS
VL: QSVLTQPPSVSAAPGQKVTISCSGSSSNIGNNYLSWYQQLPGTAPKLLIYENNKRPSGIPDRFSGSKSGTSATLGITGLQTGDEADYYCGIWDRSLSAWVFGGGTKLTVL
notes: IgG
B8: GLP1R-222-073 (antibody, V domains shown)
VH: QVQLVESGGGVVQPGRSLRLSCAASGFTFRDYGMHWVRQAPGKGLEWVAFIRYDEINKYYADSVKGRFTISRDNSKNTLYLQMNSLRAEDTAVYYCAKHMSMQEGAVTGEGQAAKEFIAWLVGGRVRADLVGDAFDVWGQGTLVTVSS
VL: QSVLTQPPSVSAAPGQKVTISCSGSGSNIGNNDVSWYQQLPGTAPKLLIYDNNKRASGIPDRFSGSKSGTSATLGITGLQTGDEADYYCGTWDRGPNTGVFGGGTKLTVL
notes: IgG
B9: GLP1R-221-075 (antibody, V domains shown)
VH: QVQLVESGGGVVQPGRSLRLSCAASGFTFSNYPMHWVRQAPGKGLEWVAVISYDETNKYYADSVKGRFTISRDNSKNTLYLQMNSLRAEDTAVYYCAKHMSMQEGAVTGEGQAAKEFIAWLVKGIVRADLVGDAFDVWGQGTLVTVSS
VL: QSVLTQPPSVSAAPGQKVTISCSGSGSNIGNNDVSWYQQLPGTAPKLLIYDNDKRPAGIPDRFSGSKSGTSATLGITGLQTGDEADYYCGTWDTSLSNYVFGGGTKLTVL
notes: IgG
B10: GLP1R-221-009 (antibody, V domains shown)
VH: QVQLVESGGGVVQPGRSLRLSCAASGFIFSNYGMHWVRQAPGKGLEWVAVISDEGSNKYYADSVKGRFTISRDNSKNTLYLQMNSLRAEDTAVYYCAKHMSMQEGAVTGAGQAAKEFIAWLVKGRVRADLVGDAFDVWGQGTLVTVSS
VL: QSVLTQPPSVSAAPGQKVTISCSGSSSNIGNQYVSWYQQLPGTAPKLLIYDDHKRPSGIPDRFSGSKSGTSATLGITGLQTGDEADYYCGTWDTSLSVGEFGGGTKLTVL
notes: IgG
B11: GLP1R-221-076 (antibody, V domains shown)
VH: QVQLVESGGGVVQPGRSLRLSCAASGFTFNNYPMHWVRQAPGKGLEWVAVISYDETNKYYADSVKGRFTISRDNSKNTLYLQMNSLRAEDTAVYYCAKHMSMQEGAVTGEGQAAKEFIAWLVKGIVRADLVGDAFDVWGQGTLVTVSS
VL: QSVLTQPPSVSAAPGQKVTISCSGTSSNIGNNDVSWYQQLPGTAPKLLIYENNKRHSGIPDRFSGSKSGTSATLGITGLQTGDEADYYCLTWDHSLTAYVFGGGTKLTVL
notes: IgG
B12: GLP1R-221-092 (antibody, V domains shown)
VH: QVQLVESGGGVVQPGRSLRLSCAASGFIFNNYGMHWVRQAPGKGLEWVAFISYGGSNKYYADSVKGRFTISRDNSKNTLYLQMNSLRAEDTAVYYCAKHMSMQEGAVTGEGQAVKEFIAWLVKGRVRADLVGDAFDVWGQGTLVTVSS
VL: QSVLTQPPSVSAAPGQKVTISCSGTTSNIANNFVSWYQQLPGTAPKLLIYDNNKRPPGIPDRFSGSKSGTSATLGITGLQTGDEADYYCGTWDTSLSVGMFGGGTKLTVL
notes: IgG

Experiments:
[1] = biological target: T1, full length human GLP-1R with N-terminal FLAG tag and C-terminal GFP tag, on CHO cells (human, UniProt P43220 24-463); assay: flow cytometry, expressing vs parent CHO cells
T1 construct: whole, on cells; the cell line itself is tied to UniProt P43220; also called FLAG-GLP-1R-GFP; CHO-GLP-1R
Experimental: (§1) GLP-1R IgG clones were tested in a binding assay coupled to flow cytometry analysis as follows: FLAG-GLP-1R-GFP expressing CHO cells (CHO-GLP-1R) and CHO-parent cells were incubated with 100 nM IgG for 1 h on ice, washed three times and incubated with Alexa 647 conjugated goat-anti-human antibody (1:200) (Jackson ImmunoResearch Laboratories, 109-605-044) for 30 min on ice, followed by three washes, centrifuging to pellet the cells between each washing step. All incubations and washes were in buffer containing PBS+1% BSA. […] Cells were analyzed by flow cytometry and hits (a hit is an IgG that specifically binds to CHO-GLP-1R) were identified by measuring the GFP signal against the Alexa 647 signal. Flow cytometry data of binding assays with 100 nM IgG are presented as dot plots. Analyses of binding assays with IgG titrations are presented as binding curves plotting IgG concentrations against MFI (mean fluorescence intensity).

[2] = biological target: T1, full length human GLP-1R with …; assay: flow cytometry titration, CHO GLP1R cells
Experimental: as §1

[3] = biological target: T1, full length human GLP-1R with …; assay: flow cytometry, expressing vs parent CHO cells; remark: listed apart in the source
Experimental: as §1

[4] = biological target: T1, full length human GLP-1R with …; assay: flow cytometry, expressing minus parent CHO cells
Experimental: as §1

[5] = biological target: T1, full length human GLP-1R with …; assay: flow cytometry, GLP1R-expressing CHO cells
Experimental: as §1

[6] = biological target: T1, full length human GLP-1R with …; assay: flow cytometry, GLP1R-expressing CHO cells; remark: listed apart in the source
Experimental: as §1

[7] = biological target: T1, full length human GLP-1R with …; assay: flow cytometry, expressing minus parent CHO cells; remark: listed apart in the source
Experimental: as §1

[8] = biological target: T1, full length human GLP-1R with …; assay: flow cytometry, expressing vs parent CHO cells; remark: listed apart in the source
Experimental: as §1

[9] = biological target: T1, full length human GLP-1R with …; assay: flow cytometry, expressing vs parent CHO cells; remark: listed apart in the source
Experimental: as §1

[10] = biological target: T1, full length human GLP-1R with …; assay: flow cytometry titration, CHO GLP1R cells; remark: listed apart in the source
Experimental: as §1

| Binder | MFI Ratio [1] | Bmax [2] | MFI Ratio [3] | Subtraction [4] | Median RL1-H of Expressing Singlets [5] | EC50 [2] [nM] | Median RL1-H of Expressing Singlets [6] | Subtraction [7] | MFI Ratio [8] | MFI Ratio [9] | Bmax [10] | EC50 [10] [nM] |
| --- | --- | --- | --- | --- | --- | --- | --- | --- | --- | --- | --- | --- |
| B1 | 914 | 798000 | 915 | 272000 | 273000 |  |  |  |  |  |  |  |
| B2 | 1070 | 287000 | 1070 | 221000 | 221000 | 4.09 |  |  |  |  |  |  |
| B3 |  |  |  |  |  |  | 218000 | 217000 | 946 | 946 | 293000 | 77.4 |
| B4 | 1480 | 250000 | 1480 | 240000 | 241000 | 27.6 |  |  |  |  |  |  |
| B5 | 711 | 933000 | 711 | 223000 | 223000 |  |  |  |  |  |  |  |
| B6 | 1020 | 167000 | 1020 | 240000 | 240000 | 9.04 |  |  |  |  |  |  |
| B7 | 928 | 172000 | 928 | 222000 | 223000 | 57.4 |  |  |  |  |  |  |
| B8 |  |  |  |  |  |  | 225000 | 225000 | 984 | 984 | 151000 | 13.1 |
| B9 | 1170 | 213000 | 1170 | 242000 | 242000 |  |  |  |  |  |  |  |
| B10 | 1120 | 215000 | 1120 | 220000 | 221000 | 12.5 |  |  |  |  |  |  |
| B11 | 747 | 799000 | 747 | 236000 | 236000 |  |  |  |  |  |  |  |
| B12 | 712 | 145000 | 712 | 232000 | 232000 | 13.3 |  |  |  |  |  |  |

— patent US20250340658A1 (TWIST BIOSCIENCE, published 2025)
